Experimental data reported in article PMC10628450 (Frontiers in Immunology, 2023).

B1: Anti-NKp46 IgG (antibody, V domains shown)
VH: QVQLVQSGAEVKKPGSSVKVSCKASGYTFSDYVINWVRQAPGQGLEWMGEIYPGSGTNYYNEKFKAKATITADKSTSTAYMELSSLRSEDTAVYYCARRGRYGLYAMDYWGQGTTVTVSS
VL: DIQMTQSPSSLSASVGDRVTITCRASQDISNYLNWYQQKPGKAPKLLIYYTSRLHSGVPSRFSGSGSGTDFTFTISSLQPEDIATYFCQQGNTRPWTFGGGTKVEIK
notes: human IgG1 heavy chain constant region (CH1, hinge, CH2, CH3); numbers count on: EU numbering; IgG1 with LALA; also called parental monospecific anti-NKp46 antibody; anti-NKp46 LALA IgG; source: Expi293 cells, transiently transfected, purified (MabSelect); copies: 2 + 2
B2: Anti-NKp46_AB_F06 (bispecific antibody, V domains shown)
VH: B1 VH
VL: B1 VL
notes: human IgG1 heavy chain constant region from its start to the PPSR motif before the AB loop of CH3; numbers count on: EU numbering; Gly4Ser linker; anti-EGFR bovine knob F06 (from an ultralong CDR-H3); human IgG1 heavy chain constant region from the motif after the AB loop of CH3 (printed as NGVS) to its end; as the light chain of m1; IgG1 with LALA; EEMTK of the AB loop replaced by G4S-knob-G4S; …
B3: Anti-NKp46_AB_H05 (bispecific antibody, V domains shown)
VH: B1 VH
VL: B1 VL
notes: human IgG1 heavy chain constant region from its start to the PPSR motif before the AB loop of CH3; numbers count on: EU numbering; Gly4Ser linker; anti-EGFR bovine knob H05 (from an ultralong CDR-H3); human IgG1 heavy chain constant region from the motif after the AB loop of CH3 (printed as NGVS) to its end; as the light chain of m1; IgG1 with LALA; EEMTK of the AB loop replaced by G4S-knob-G4S; …
B4: Anti-NKp46_EF_F06 (bispecific antibody, V domains shown)
VH: B1 VH
VL: B1 VL
notes: human IgG1 heavy chain constant region from its start to the KLTV motif before the EF loop of CH3; numbers count on: EU numbering; Gly4Ser linker; anti-EGFR bovine knob F06 (from an ultralong CDR-H3); human IgG1 heavy chain constant region from the RWQQ motif after the EF loop of CH3 to its end; as the light chain of m1; IgG1 with LALA; DKS of the EF loop replaced by G4S-knob-G4S (results); …
B5: Anti-NKp46_EF_H05 (bispecific antibody, V domains shown)
VH: B1 VH
VL: B1 VL
notes: human IgG1 heavy chain constant region from its start to the KLTV motif before the EF loop of CH3; numbers count on: EU numbering; Gly4Ser linker; anti-EGFR bovine knob H05 (from an ultralong CDR-H3); human IgG1 heavy chain constant region from the RWQQ motif after the EF loop of CH3 to its end; as the light chain of m1; IgG1 with LALA; DKS of the EF loop replaced by G4S-knob-G4S (results); …

Each binder was assayed against T1, NKp46-His6 (Homo sapiens, UniProt O76036) (assay: BLI; antibodies loaded at 5 µg/ml on anti-human-Fc (AHC) or anti-human-CH1 (FAB2G) biosensors; antigen in solution (EGFR 3.125-200 nM; NKp46 and NKp30 1.6-100 nM) in kinetics buffer (PBS, 0.1% Tween-20, 1% BSA); 25°C; 1:1 binding model). Details: both partners purified.
T1 construct: recombinant human NKp46 (natural cytotoxicity receptor); soluble recombinant receptor; probably the extracellular domain; also called (rh) NKp46; recombinant NKp46-His6; source: bought: AcroBiosystems
T1 sequence (O76036 22-258): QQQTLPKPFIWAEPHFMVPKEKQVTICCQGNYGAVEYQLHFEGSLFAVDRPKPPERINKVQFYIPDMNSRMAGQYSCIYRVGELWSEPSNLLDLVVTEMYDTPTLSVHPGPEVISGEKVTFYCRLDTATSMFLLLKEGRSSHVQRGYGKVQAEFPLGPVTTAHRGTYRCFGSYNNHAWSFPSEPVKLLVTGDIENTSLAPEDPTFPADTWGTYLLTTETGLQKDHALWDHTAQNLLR

Binder	Kd [nM]
B1	1
B2	2
B3	3.4
B4	3
B5	3.6
